# Reference: patent US20260176319A1 (KALLYOPE, published 2026)
# Starred links: 1 amine or outer side, 2 acyl side, 3 side chain; linkers in the order of their positions; H or OH if unused. Non-standard residues stand in square brackets, D forms with d. *: point of attachment. Trp(7-F) = N[C@@H](Cc1c[nH]c2c(F)cccc12)C(=O)O; Trp(7-Me) = Cc1cccc2c(C[C@H](N)C(=O)O)c[nH]c12; d(γGlu) = O=C(O)[C@@H](CCC(=O)[*:2])N[*:1]; C18 diacid = O=C(O)CCCCCCCCCCCCCCCCC(=O)*; γGlu = O=C(O)[C@H](CCC(=O)[*:2])N[*:1]; 2Nal = N[C@@H](Cc1ccc2ccccc2c1)C(=O)O; Palmitoyl = CCCCCCCCCCCCCCCC(=O)*; 3Pal = N[C@@H](Cc1cccnc1)C(=O)O; 4Pal = N[C@@H](Cc1ccncc1)C(=O)O; Nle = CCCC[C@H](N)C(=O)O; AEEA = NCCOCCOCC(=O)O; Sar = CNCC(=O)O
# B1: Peptide 86 (peptide)
# peptide: {C18 diacid}-[γGlu][AEEA][AEEA]GNH[Trp(7-F)]AV[dA]HL[Nle]-NH2
# SMILES: CCCC[C@H](NC(=O)[C@H](CC(C)C)NC(=O)[C@H](Cc1c[nH]cn1)NC(=O)[C@@H](C)NC(=O)[C@@H](NC(=O)[C@H](C)NC(=O)[C@H](Cc1c[nH]c2c(F)cccc12)NC(=O)[C@H](Cc1c[nH]cn1)NC(=O)[C@H](CC(N)=O)NC(=O)CNC(=O)COCCOCCNC(=O)COCCOCCNC(=O)CC[C@H](NC(=O)CCCCCCCCCCCCCCCCC(=O)O)C(=O)O)C(C)C)C(N)=O
# B2: Peptide 87 (peptide)
# peptide: Palmitoyl-[γGlu][AEEA][AEEA]GNH[Trp(7-F)]AV[dA]HL[Nle]-NH2
# SMILES: CCCCCCCCCCCCCCCC(=O)N[C@@H](CCC(=O)NCCOCCOCC(=O)NCCOCCOCC(=O)NCC(=O)N[C@@H](CC(N)=O)C(=O)N[C@@H](Cc1c[nH]cn1)C(=O)N[C@@H](Cc1c[nH]c2c(F)cccc12)C(=O)N[C@@H](C)C(=O)N[C@H](C(=O)N[C@H](C)C(=O)N[C@@H](Cc1c[nH]cn1)C(=O)N[C@@H](CC(C)C)C(=O)N[C@@H](CCCC)C(N)=O)C(C)C)C(=O)O
# B3: Peptide 88 (peptide)
# peptide: {C18 diacid}-[γGlu][AEEA][AEEA]GRHWAV[dA]HL[Nle]-NH2
# SMILES: CCCC[C@H](NC(=O)[C@H](CC(C)C)NC(=O)[C@H](Cc1c[nH]cn1)NC(=O)[C@@H](C)NC(=O)[C@@H](NC(=O)[C@H](C)NC(=O)[C@H](Cc1c[nH]c2ccccc12)NC(=O)[C@H](Cc1c[nH]cn1)NC(=O)[C@H](CCCNC(=N)N)NC(=O)CNC(=O)COCCOCCNC(=O)COCCOCCNC(=O)CC[C@H](NC(=O)CCCCCCCCCCCCCCCCC(=O)O)C(=O)O)C(C)C)C(N)=O
# B4: Peptide 89 (peptide)
# peptide: Palmitoyl-[γGlu][AEEA][AEEA]GRHWAV[dA]HL[Nle]-NH2
# SMILES: CCCCCCCCCCCCCCCC(=O)N[C@@H](CCC(=O)NCCOCCOCC(=O)NCCOCCOCC(=O)NCC(=O)N[C@@H](CCCNC(=N)N)C(=O)N[C@@H](Cc1c[nH]cn1)C(=O)N[C@@H](Cc1c[nH]c2ccccc12)C(=O)N[C@@H](C)C(=O)N[C@H](C(=O)N[C@H](C)C(=O)N[C@@H](Cc1c[nH]cn1)C(=O)N[C@@H](CC(C)C)C(=O)N[C@@H](CCCC)C(N)=O)C(C)C)C(=O)O
# B5: Peptide 90 (peptide)
# peptide: {C18 diacid}-[γGlu][AEEA][AEEA][AEEA][AEEA]GNH[Trp(7-Me)]AV[dA]HL[Nle]-NH2
# SMILES: CCCC[C@H](NC(=O)[C@H](CC(C)C)NC(=O)[C@H](Cc1c[nH]cn1)NC(=O)[C@@H](C)NC(=O)[C@@H](NC(=O)[C@H](C)NC(=O)[C@H](Cc1c[nH]c2c(C)cccc12)NC(=O)[C@H](Cc1c[nH]cn1)NC(=O)[C@H](CC(N)=O)NC(=O)CNC(=O)COCCOCCNC(=O)COCCOCCNC(=O)COCCOCCNC(=O)COCCOCCNC(=O)CC[C@H](NC(=O)CCCCCCCCCCCCCCCCC(=O)O)C(=O)O)C(C)C)C(N)=O
# B6: Peptide 91 (peptide)
# peptide: Palmitoyl-[γGlu][AEEA][AEEA][AEEA][AEEA]GN[3Pal][Trp(7-Me)]AV[dA]HL[Nle]-NH2
# SMILES: CCCCCCCCCCCCCCCC(=O)N[C@@H](CCC(=O)NCCOCCOCC(=O)NCCOCCOCC(=O)NCCOCCOCC(=O)NCCOCCOCC(=O)NCC(=O)N[C@@H](CC(N)=O)C(=O)N[C@@H](Cc1cccnc1)C(=O)N[C@@H](Cc1c[nH]c2c(C)cccc12)C(=O)N[C@@H](C)C(=O)N[C@H](C(=O)N[C@H](C)C(=O)N[C@@H](Cc1c[nH]cn1)C(=O)N[C@@H](CC(C)C)C(=O)N[C@@H](CCCC)C(N)=O)C(C)C)C(=O)O
# B7: Peptide 93 (peptide)
# peptide: Palmitoyl-[γGlu][AEEA][AEEA]GNH[2Nal]AVAHL[Nle]-NH2
# SMILES: CCCCCCCCCCCCCCCC(=O)N[C@@H](CCC(=O)NCCOCCOCC(=O)NCCOCCOCC(=O)NCC(=O)N[C@@H](CC(N)=O)C(=O)N[C@@H](Cc1c[nH]cn1)C(=O)N[C@@H](Cc1ccc2ccccc2c1)C(=O)N[C@@H](C)C(=O)N[C@H](C(=O)N[C@@H](C)C(=O)N[C@@H](Cc1c[nH]cn1)C(=O)N[C@@H](CC(C)C)C(=O)N[C@@H](CCCC)C(N)=O)C(C)C)C(=O)O
# B8: Peptide 94 (peptide)
# peptide: Palmitoyl-[γGlu][AEEA][AEEA]GN[4Pal]WAV[dA]HL[Nle]-NH2
# SMILES: CCCCCCCCCCCCCCCC(=O)N[C@@H](CCC(=O)NCCOCCOCC(=O)NCCOCCOCC(=O)NCC(=O)N[C@@H](CC(N)=O)C(=O)N[C@@H](Cc1ccncc1)C(=O)N[C@@H](Cc1c[nH]c2ccccc12)C(=O)N[C@@H](C)C(=O)N[C@H](C(=O)N[C@H](C)C(=O)N[C@@H](Cc1c[nH]cn1)C(=O)N[C@@H](CC(C)C)C(=O)N[C@@H](CCCC)C(N)=O)C(C)C)C(=O)O
# B9: Peptide 95 (peptide)
# peptide: {C18 diacid}-[γGlu][AEEA][AEEA][AEEA][AEEA]GN[3Pal][Trp(7-Me)]AV[dA]HL[Nle]-NH2
# SMILES: CCCC[C@H](NC(=O)[C@H](CC(C)C)NC(=O)[C@H](Cc1c[nH]cn1)NC(=O)[C@@H](C)NC(=O)[C@@H](NC(=O)[C@H](C)NC(=O)[C@H](Cc1c[nH]c2c(C)cccc12)NC(=O)[C@H](Cc1cccnc1)NC(=O)[C@H](CC(N)=O)NC(=O)CNC(=O)COCCOCCNC(=O)COCCOCCNC(=O)COCCOCCNC(=O)COCCOCCNC(=O)CC[C@H](NC(=O)CCCCCCCCCCCCCCCCC(=O)O)C(=O)O)C(C)C)C(N)=O
# B10: Peptide 96 (peptide)
# peptide: Palmitoyl-[γGlu][AEEA][AEEA]GNHWAV[dA]HL[Nle]-NH2
# SMILES: CCCCCCCCCCCCCCCC(=O)N[C@@H](CCC(=O)NCCOCCOCC(=O)NCCOCCOCC(=O)NCC(=O)N[C@@H](CC(N)=O)C(=O)N[C@@H](Cc1c[nH]cn1)C(=O)N[C@@H](Cc1c[nH]c2ccccc12)C(=O)N[C@@H](C)C(=O)N[C@H](C(=O)N[C@H](C)C(=O)N[C@@H](Cc1c[nH]cn1)C(=O)N[C@@H](CC(C)C)C(=O)N[C@@H](CCCC)C(N)=O)C(C)C)C(=O)O
# B11: Peptide 97 (peptide)
# peptide: {C18 diacid}-[γGlu][AEEA][AEEA]GNHWAV[dA]HL[Nle]-NH2
# SMILES: CCCC[C@H](NC(=O)[C@H](CC(C)C)NC(=O)[C@H](Cc1c[nH]cn1)NC(=O)[C@@H](C)NC(=O)[C@@H](NC(=O)[C@H](C)NC(=O)[C@H](Cc1c[nH]c2ccccc12)NC(=O)[C@H](Cc1c[nH]cn1)NC(=O)[C@H](CC(N)=O)NC(=O)CNC(=O)COCCOCCNC(=O)COCCOCCNC(=O)CC[C@H](NC(=O)CCCCCCCCCCCCCCCCC(=O)O)C(=O)O)C(C)C)C(N)=O
# B12: Peptide 7 (peptide)
# peptide: Palmitoyl-[d(γGlu)][AEEA][AEEA]GNHWAV[dA]HL[Nle]-NH2
# SMILES: CCCCCCCCCCCCCCCC(=O)N[C@H](CCC(=O)NCCOCCOCC(=O)NCCOCCOCC(=O)NCC(=O)N[C@@H](CC(N)=O)C(=O)N[C@@H](Cc1c[nH]cn1)C(=O)N[C@@H](Cc1c[nH]c2ccccc12)C(=O)N[C@@H](C)C(=O)N[C@H](C(=O)N[C@H](C)C(=O)N[C@@H](Cc1c[nH]cn1)C(=O)N[C@@H](CC(C)C)C(=O)N[C@@H](CCCC)C(N)=O)C(C)C)C(=O)O
# B13: Peptide 98 (peptide)
# peptide: {C18 diacid}-[γGlu][AEEA][AEEA][AEEA][AEEA]GNHWAV[dA]HL[Nle]-NH2
# SMILES: CCCC[C@H](NC(=O)[C@H](CC(C)C)NC(=O)[C@H](Cc1c[nH]cn1)NC(=O)[C@@H](C)NC(=O)[C@@H](NC(=O)[C@H](C)NC(=O)[C@H](Cc1c[nH]c2ccccc12)NC(=O)[C@H](Cc1c[nH]cn1)NC(=O)[C@H](CC(N)=O)NC(=O)CNC(=O)COCCOCCNC(=O)COCCOCCNC(=O)COCCOCCNC(=O)COCCOCCNC(=O)CC[C@H](NC(=O)CCCCCCCCCCCCCCCCC(=O)O)C(=O)O)C(C)C)C(N)=O
# B14: Peptide 99 (peptide)
# peptide: {C18 diacid}-[γGlu][AEEA][AEEA]GNH[2Nal]AV[dA]HL[Nle][Sar]-NH2
# SMILES: CCCC[C@H](NC(=O)[C@H](CC(C)C)NC(=O)[C@H](Cc1c[nH]cn1)NC(=O)[C@@H](C)NC(=O)[C@@H](NC(=O)[C@H](C)NC(=O)[C@H](Cc1ccc2ccccc2c1)NC(=O)[C@H](Cc1c[nH]cn1)NC(=O)[C@H](CC(N)=O)NC(=O)CNC(=O)COCCOCCNC(=O)COCCOCCNC(=O)CC[C@H](NC(=O)CCCCCCCCCCCCCCCCC(=O)O)C(=O)O)C(C)C)C(=O)N(C)CC(N)=O
# B15: Peptide 100 (peptide)
# peptide: {C18 diacid}-[γGlu][AEEA][AEEA]RNHWAV[dA]HL[Nle][Sar]-NH2
# SMILES: CCCC[C@H](NC(=O)[C@H](CC(C)C)NC(=O)[C@H](Cc1c[nH]cn1)NC(=O)[C@@H](C)NC(=O)[C@@H](NC(=O)[C@H](C)NC(=O)[C@H](Cc1c[nH]c2ccccc12)NC(=O)[C@H](Cc1c[nH]cn1)NC(=O)[C@H](CC(N)=O)NC(=O)[C@H](CCCNC(=N)N)NC(=O)COCCOCCNC(=O)COCCOCCNC(=O)CC[C@H](NC(=O)CCCCCCCCCCCCCCCCC(=O)O)C(=O)O)C(C)C)C(=O)N(C)CC(N)=O
# B16: Peptide 101 (peptide)
# peptide: {C18 diacid}-[γGlu][AEEA][AEEA][AEEA][AEEA]GNH[Trp(7-F)]AV[dA]HL[Nle][Sar]-NH2
# SMILES: CCCC[C@H](NC(=O)[C@H](CC(C)C)NC(=O)[C@H](Cc1c[nH]cn1)NC(=O)[C@@H](C)NC(=O)[C@@H](NC(=O)[C@H](C)NC(=O)[C@H](Cc1c[nH]c2c(F)cccc12)NC(=O)[C@H](Cc1c[nH]cn1)NC(=O)[C@H](CC(N)=O)NC(=O)CNC(=O)COCCOCCNC(=O)COCCOCCNC(=O)COCCOCCNC(=O)COCCOCCNC(=O)CC[C@H](NC(=O)CCCCCCCCCCCCCCCCC(=O)O)C(=O)O)C(C)C)C(=O)N(C)CC(N)=O
# Target: human GRP receptor (human, UniProt P30550 1-384)
# Test: cell-based or functional assay
# Sequence of human GRP receptor (P30550 whole entry): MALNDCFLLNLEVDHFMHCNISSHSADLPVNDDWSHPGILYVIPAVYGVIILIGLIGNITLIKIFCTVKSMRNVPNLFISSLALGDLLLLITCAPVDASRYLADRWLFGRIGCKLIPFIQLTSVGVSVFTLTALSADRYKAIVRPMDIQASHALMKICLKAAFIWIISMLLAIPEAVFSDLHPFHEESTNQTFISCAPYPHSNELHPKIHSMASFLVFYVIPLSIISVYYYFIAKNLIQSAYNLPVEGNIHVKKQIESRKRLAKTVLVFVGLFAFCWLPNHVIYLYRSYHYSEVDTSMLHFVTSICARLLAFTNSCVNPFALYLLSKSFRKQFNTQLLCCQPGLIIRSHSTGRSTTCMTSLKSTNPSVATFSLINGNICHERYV
row,Binder,hIP1 GRPR EC50 [nM]
1,B1,17.6
2,B2,1.73
3,GNHWAVXHLX (Gly-Asn-His-Trp-Ala-Val-D-Ala-His-Leu-Nle-NH2) [Peptide 6],26.8
4,B3,5.51
5,B4,1.57
6,B5,12.6
7,B6,3.72
8,B7,6.95
9,B8,1.45
10,B9,110
11,B10,1.58
12,B11,8.91
13,B12,0.6
14,B13,11.2
15,B14,> 10000
16,B15,99.9
17,B16,352
